Measured values from paper PMC5737377, “Structural insights into RapZ-mediated regulation of bacterial amino-sugar metabolism” (Nucleic Acids Research, 2017).

Columns and labels:
[1] = system: RapZ-CTD (Strep-tag cleaved) (Escherichia coli); experiment: BLI; details: 1 mM Mg2+; Kd values only in figure; incomplete dissociation; 5' biotin; BLI: 25 mM Tris pH 7.5, 50 mM NaCl, 50 mM KCl, 1 mM MgCl2, 1 mM DTT, temperature not stated; EMSA (GlmY): 10 mM Tris pH 7.0, 100 mM KCl, 10 mM MgCl2, 1 ug …; scale: fold higher affinity than full-length RapZ
[2] = system: RapZ full length (Strep-tag cleaved) (Escherichia coli); experiment: BLI; details: 1 mM Mg2+; Kd values only in figure; incomplete dissociation; 5' biotin; BLI: 25 mM Tris pH 7.5, 50 mM NaCl, 50 mM KCl, 1 mM MgCl2, 1 mM DTT, temperature not stated; EMSA (GlmY): 10 mM Tris pH 7.0, 100 mM KCl, 10 mM MgCl2, 1 ug …
[3] = target: the molecule itself; experiment: SEC-MALS; full-length RapZ alone, 30 μM on Superdex 200 10/300 GL, 25°C
[4] = target: the molecule itself; experiment: SEC-MALS + AUC; RapZ-CTD alone. SEC-MALS: 30 μM on Superdex 200 10/300 GL, 25 mM Tris pH 7.5, 200 mM KCl, 1 mM TCEP, 25°C. Sedimentation velocity AUC: 0.5–1 mg/ml, 20°C, 50 000 rpm

GlmY processed (BLI) gave a relative binding affinity [1] of 2 and a relative binding affinity (relative Kd-type affinity (reference)) [2] of 1.

Molecule GlmZ processed (BLI) has a relative binding affinity [1] of 2 and a relative binding affinity (relative Kd-type affinity (reference)) [2] of 1.

For GlmZ full length (BLI), the relative binding affinity [1] was 2 and the relative binding affinity (relative Kd-type affinity (reference)) [2] was 1.

B1: full length Escherichia coli RapZ (natural protein, UniProt P0A894 1-284, looked up)
chain: MVLMIVSGRSGSGKSVALRALEDMGFYCVDNLPVVLLPDLARTLADREISAAVSIDVRNMPESPEIFEQAMSNLPDAFSPQLLFLDADRNTLIRRYSDTRRLHPLSSKNLSLESAIDKESDLLEPLRSRADLIVDTSEMSVHELAEMLRTRLLGKRERELTMVFESFGFKHGIPIDADYVFDVRFLPNPHWDPKLRPMTGLDKPVAAFLDRHTEVHNFIYQTRSYLELWLPMLETNNRSYLTVAIGCTGGKHRSVYIAEQLADYFRSRGKNVQSRHRTLEKRKP
notes: RapZ (formerly YhbJ), Escherichia coli, full length, residues 1-284; also called YhbJ; full-length RapZ (1–284); source: E. coli Rosetta, purified (Strep Trap, heparin, gel filtration)
For B1, the “stoichiometry N” value [3] was 4.

B2: RapZ-CTD (154–284) (domain or fragment, Escherichia coli, UniProt P0A894 154-284, looked up)
chain: GKRERELTMVFESFGFKHGIPIDADYVFDVRFLPNPHWDPKLRPMTGLDKPVAAFLDRHTEVHNFIYQTRSYLELWLPMLETNNRSYLTVAIGCTGGKHRSVYIAEQLADYFRSRGKNVQSRHRTLEKRKP
notes: RapZ, Escherichia coli, C-terminal domain, residues 154-284; also called C-terminal domain of RapZ; source: E. coli Rosetta, purified (Strep Trap, MonoS, gel filtration)
With B2 the “stoichiometry N” value [4] was 2.
